Series [1] addresses NtMOC1 (N108-S275, I112V/Q162K/E235Q/E239Q) (Nicotiana tabacum). The series can be described thus: crystal structure; MOC1 with 1 mM MgCl2 mixed with Holliday junction DNA (9-bp arms) at a molar ratio of 1:1.2, co-crystallised.
Series [2] shares this target. The experiment in a line: crystal structure; HJ-free (apo) MOC1, 10 mg/ml with 1 mM MgCl2, sitting-drop vapor diffusion at 18 °C.
Another series addresses T1, NtMOC1 Y180A (Nicotiana tabacum, UniProt A0A1S4BMC2 108-275, Y180A).
T1 sequence: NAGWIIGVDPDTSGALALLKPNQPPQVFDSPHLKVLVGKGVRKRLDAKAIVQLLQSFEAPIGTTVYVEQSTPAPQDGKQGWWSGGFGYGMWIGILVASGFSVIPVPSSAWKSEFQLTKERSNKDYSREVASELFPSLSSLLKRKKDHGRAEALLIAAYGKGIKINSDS
The experiment in a line: EMSA; 5 mM EDTA; little effect; EMSA: 50 mM Tris-HCl pH 8.0, 1 mM DTT, 5 mM EDTA, 200 ng/ml heparin (so in the source), 10% glycerol, 25 C, 30 min; HJ 250 nM, protein 0-1000 nM; 6% native PAGE, no MgCl2. To be noted: protein: recombinant; tags: 6xHis N-term, removed (DrICE); chain copies: 2; label: none (GelRed stain); four-way junction of 4 strands, 28 nt each, 2-bp homologous core. For orientation: In EMSA bound probe runs differently from free probe, usually more slowly.

The target in the next series is T2, NtMOC1 D116A (Nicotiana tabacum, UniProt A0A1S4BMC2 108-275, D116A).
T2 sequence: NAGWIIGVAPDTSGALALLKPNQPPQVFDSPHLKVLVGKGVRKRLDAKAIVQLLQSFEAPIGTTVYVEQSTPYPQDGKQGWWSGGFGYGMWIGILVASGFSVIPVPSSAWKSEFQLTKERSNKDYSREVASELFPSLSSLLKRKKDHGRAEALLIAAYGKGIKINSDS
The series can be described thus: EMSA; 5 mM EDTA; EMSA: 50 mM Tris-HCl pH 8.0, 1 mM DTT, 5 mM EDTA, 200 ng/ml heparin (so in the source), 10% glycerol, 25 C, 30 min; HJ 250 nM, protein 0-1000 nM; 6% native PAGE, no MgCl2. To be noted: protein: recombinant; tags: 6xHis N-term, removed (DrICE); chain copies: 2; label: none (GelRed stain); four-way junction of 4 strands, 28 nt each, 2-bp homologous core.

Another series has as its target T3, NtMOC1 D253A (Nicotiana tabacum, UniProt A0A1S4BMC2 108-275, D253A).
T3 sequence: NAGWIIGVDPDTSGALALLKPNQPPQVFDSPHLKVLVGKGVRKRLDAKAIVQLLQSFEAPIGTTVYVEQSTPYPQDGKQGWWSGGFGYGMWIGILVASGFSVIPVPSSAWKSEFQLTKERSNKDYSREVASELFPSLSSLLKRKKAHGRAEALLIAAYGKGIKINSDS
The series is described as above. To be noted: protein: recombinant; tags: 6xHis N-term, removed (DrICE); chain copies: 2; label: none (GelRed stain); four-way junction of 4 strands, 28 nt each, 2-bp homologous core.

A further series addresses T4, NtMOC1 D118A (Nicotiana tabacum, UniProt A0A1S4BMC2 108-275, D118A).
T4 sequence: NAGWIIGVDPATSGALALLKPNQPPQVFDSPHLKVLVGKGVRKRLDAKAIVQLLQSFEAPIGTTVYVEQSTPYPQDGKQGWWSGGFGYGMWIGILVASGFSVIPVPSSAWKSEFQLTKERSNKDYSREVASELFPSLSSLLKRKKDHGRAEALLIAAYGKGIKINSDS
The series is described as above. The settings on record: protein: recombinant; tags: 6xHis N-term, removed (DrICE); chain copies: 2; label: none (GelRed stain); four-way junction of 4 strands, 28 nt each, 2-bp homologous core.

For another series, the target named is T5, NtMOC1 E258A (Nicotiana tabacum, UniProt A0A1S4BMC2 108-275, E258A).
T5 sequence: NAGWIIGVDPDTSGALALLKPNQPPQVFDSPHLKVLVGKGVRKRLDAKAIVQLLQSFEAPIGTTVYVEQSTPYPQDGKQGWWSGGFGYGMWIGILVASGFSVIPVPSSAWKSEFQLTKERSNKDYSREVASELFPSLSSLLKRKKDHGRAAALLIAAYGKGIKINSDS
The description is as above. To be noted: protein: recombinant; tags: 6xHis N-term, removed (DrICE); chain copies: 2; label: none (GelRed stain); four-way junction of 4 strands, 28 nt each, 2-bp homologous core.

Another series concerns the target T6, NtMOC1 E175A (Nicotiana tabacum, UniProt A0A1S4BMC2 108-275, E175A).
T6 sequence: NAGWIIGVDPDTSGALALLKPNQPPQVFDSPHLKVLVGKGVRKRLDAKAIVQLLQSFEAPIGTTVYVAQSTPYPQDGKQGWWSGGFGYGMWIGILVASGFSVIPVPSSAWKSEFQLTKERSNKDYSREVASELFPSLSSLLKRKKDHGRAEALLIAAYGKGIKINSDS
The series is described as above. To be noted: protein: recombinant; tags: 6xHis N-term, removed (DrICE); chain copies: 2; label: none (GelRed stain); four-way junction of 4 strands, 28 nt each, 2-bp homologous core.

As a reminder, the stoichiometry N is a count of units in the complex or per binding partner. Regarding “NtMOC1 (N108-S275, I112V/Q162K/E235Q/E239Q) (domain or fragment)”, the stoichiometry N in series [1] and in series [2] was 2 each time.

B1: X2 (CCGG) HJ (structured_DNA)
DNA 1: GGGCAAAGATGTCCCTCTGTTGTAATCG
DNA 2: CCAGTGCCTTGCTGGGACATCTTTGCCC
DNA 3: TAGACAGCTCCATCCAGCAAGGCACTGG
DNA 4: CGATTACAACAGAGGATGGAGCTGTCTA
On to B1, for which the binding result with NtMOC1 Y180A, with NtMOC1 D116A, with NtMOC1 D253A, with NtMOC1 D118A, with NtMOC1 E258A and with NtMOC1 E175A was “binds” each time.
